Each block holds one substance with its values, some of them ahead of it.
Assays:
[1] = biological target: yeast-expressed recombinant human IgG1-Fc (1) (human); assay: SDS-PAGE under non-reducing conditions
[2] = biological target: yeast-expressed recombinant human IgG1-Fc (1) (human); assay: SEC
[3] = biological target: soluble human FcγIIIa receptor (human) (UniProt P08637); assay: SPR
[4] = biological target: GlcNAc-containing IgG1-Fc (2) (human); assay: SEC
[5] = biological target: PNGase F deglycosylated IgG1-Fc (human); assay: SDS-PAGE under non-reducing conditions

Sequence of UniProt P08637 (P08637 17-208): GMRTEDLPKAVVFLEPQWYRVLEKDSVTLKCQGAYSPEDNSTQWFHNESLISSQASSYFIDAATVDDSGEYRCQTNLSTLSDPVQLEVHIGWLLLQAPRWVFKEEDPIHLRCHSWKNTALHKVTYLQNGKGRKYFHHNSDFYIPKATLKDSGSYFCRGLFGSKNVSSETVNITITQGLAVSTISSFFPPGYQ

stoichiometry N [1]: 2 | stoichiometry N [2]: 2
Substance: yeast-expressed recombinant human IgG1-Fc (1) (domain or fragment)

fold more active in binding than the CHO-expressed IgG1-Fc [3]: 2 fold
Substance: IgG1-Fc glycoform (4), Man3GlcNAc2-IgG1-Fc (domain or fragment)

stoichiometry N [4]: 2 | fold less active in binding than the Fc glycoform (4) [3]: > 17 fold
Substance: GlcNAc-containing IgG1-Fc (2) (domain or fragment)

fold more active in binding than the CHO-expressed IgG1-Fc [3]: 1.4 fold
Substance: IgG1-Fc glycoform (6), Gal2Man3GlcNAc2-IgG1-Fc (domain or fragment)

stoichiometry N [5]: 2
Substance: PNGase F deglycosylated IgG1-Fc (domain or fragment)
